target: arhg7_human ARHGEF7 (UniProt Q14155)
Sequence of UniProt Q14155 (Q14155 whole entry): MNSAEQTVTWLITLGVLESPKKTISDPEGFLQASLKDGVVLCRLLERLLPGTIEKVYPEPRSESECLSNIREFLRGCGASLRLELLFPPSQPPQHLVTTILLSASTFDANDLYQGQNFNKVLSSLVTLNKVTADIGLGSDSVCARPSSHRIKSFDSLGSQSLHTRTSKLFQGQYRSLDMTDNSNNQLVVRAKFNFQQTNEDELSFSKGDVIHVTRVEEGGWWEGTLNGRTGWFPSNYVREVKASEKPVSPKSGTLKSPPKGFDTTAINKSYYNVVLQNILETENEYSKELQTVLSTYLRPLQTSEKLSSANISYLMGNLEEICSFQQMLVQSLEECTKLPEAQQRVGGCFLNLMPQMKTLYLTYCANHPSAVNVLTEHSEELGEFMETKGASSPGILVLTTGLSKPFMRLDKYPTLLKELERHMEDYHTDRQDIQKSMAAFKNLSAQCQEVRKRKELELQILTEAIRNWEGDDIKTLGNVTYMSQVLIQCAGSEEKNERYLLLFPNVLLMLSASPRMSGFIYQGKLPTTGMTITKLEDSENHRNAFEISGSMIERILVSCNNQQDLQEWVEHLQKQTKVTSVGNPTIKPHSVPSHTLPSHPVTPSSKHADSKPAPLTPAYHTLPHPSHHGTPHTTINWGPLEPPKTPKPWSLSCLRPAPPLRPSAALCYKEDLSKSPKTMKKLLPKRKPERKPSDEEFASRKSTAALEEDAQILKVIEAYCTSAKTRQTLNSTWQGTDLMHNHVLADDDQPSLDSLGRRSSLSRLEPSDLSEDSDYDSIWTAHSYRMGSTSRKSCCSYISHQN

Row | effect of a mutation on the interaction | Substance
1 | decreasing interaction | Leucine-rich repeat serine/threonine-protein kinase 2 (Homo sapiens), Q5S007 N1437S
2 | decreasing interaction | Leucine-rich repeat serine/threonine-protein kinase 2 (Homo sapiens), Q5S007 R1441C
3 | decreasing interaction | Leucine-rich repeat serine/threonine-protein kinase 2 (Homo sapiens), Q5S007 T1348N

Reference: IntAct's records for PubMed 21048939
